Experimental data from the supplement of paper PMC7125110.
± gives the standard error. For some assays here: This sample holds only a part of the variants without activity.

B1: glmS ribozyme (parent)
chain: AUAAAAGCGCCAGAACUACAGAAAUGUAGUUGACGAGGAGGAGGUUUAUCGAAUUUUCGGCGGAUGCCUCCAAA

What was measured:
Settings in all cases: with glucosamine-6-phosphate
[1] = variants of: B1; assay: kcat; higher = faster cleavage; RNA array
Procedure, shortened: (§1)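 Barcoded ribozyme variants were transcribed in situ on sequenced MiSeq chips by E. coli RNA polymerase. At 37 °C, a hybridised Cy3 probe tracked them while glucosamine-6-phosphate (40 μM to 10 mM) in HEPES/KCl/Mg(OAc)2 buffer flowed in and tiles were imaged over ~14 h. Per-tile medians of signals normalised to baseline and to non-cleaving reference variants were fit to one- or two-exponential decays, giving kobs. kcat and KM came from weighted Michaelis–Menten fits across concentrations.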

[2] = variants of: B1; assay: KM; higher = weaker cofactor use; RNA array
Procedure, shortened: as §1

[3] = variants of: B1; assay: self-cleavage kobs at 40 uM GlcN6P; higher = faster cleavage; RNA array
Procedure, shortened: as §1

[4] = variants of: B1; assay: self-cleavage kobs at 160 uM GlcN6P; higher = faster cleavage; RNA array
Procedure, shortened: as §1

[5] = variants of: B1; assay: self-cleavage kobs at 640 uM GlcN6P; higher = faster cleavage; RNA array
Procedure, shortened: as §1

[6] = variants of: B1; assay: self-cleavage kobs at 2500 uM GlcN6P; higher = faster cleavage; RNA array
Procedure, shortened: as §1

[7] = variants of: B1; assay: self-cleavage kobs at 10000 uM GlcN6P; higher = faster cleavage; RNA array
Procedure, shortened: as §1

| Variant | kcat [1] | KM [2] | self-cleavage kobs at 40 uM GlcN6P [3] | self-cleavage kobs at 160 uM GlcN6P [4] | self-cleavage kobs at 640 uM GlcN6P [5] | self-cleavage kobs at 2500 uM GlcN6P [6] | self-cleavage kobs at 10000 uM GlcN6P [7] |
| --- | --- | --- | --- | --- | --- | --- | --- |
| AUAAAAGCGCCAGAACUACAGAAAUGUAGUAGACGAGGAGGAGGUUUAUCGAAUGUUCGGCGGAUGGCUCCAAA | 0.000655 ± 6.8e-05 s⁻¹ | 428 ± 100 µM | 5.68e-05 ± 1.9e-05 s⁻¹ | 0.000166 ± 5.4e-05 s⁻¹ | 0.000467 ± 0.00012 s⁻¹ | 0.000505 ± 9.5e-05 s⁻¹ | 0.000735 ± 0.00019 s⁻¹ |
| AUAAAAGCGCCAGAACUACAGAAAUGUAGUUGACGAGGAGGAGGUUUACCGAAUUUUCGGCGGAUGUCUCCAAA | 1e-05 ± 1e-06 s⁻¹ | 267 ± 130 µM | – | – | – | – | – |
| AUAAAAGCGCCAGAUCUACAGAAAUGUAGUUGACGAGGAGGAGGUUUAUCGAAUUCUCGGCGGAUGCCUCCAAA | 0.00101 ± 4.2e-05 s⁻¹ | 2320 ± 150 µM | – | 6.26e-05 ± 9.4e-06 s⁻¹ | 0.000221 ± 2.7e-05 s⁻¹ | 0.000551 ± 6.9e-05 s⁻¹ | 0.0008 ± 9.1e-05 s⁻¹ |
| AUAAAAGCGCCCGAACUACAGAAAUGUAGCUGACGAGGAGGAGGUUUAUCGAAUUUUCGGCGGAUGCCUCCAAA | 0.00413 ± 0.0012 s⁻¹ | 3850 ± 1500 µM | 6.11e-05 ± 7.7e-06 s⁻¹ | 0.000121 ± 2e-05 s⁻¹ | 0.000707 ± 9.2e-05 s⁻¹ | 0.00145 ± 0.0002 s⁻¹ | 0.00306 ± 0.00028 s⁻¹ |
| AUAAAAGCGCCAGAACUACAGAAAUGUAGUUGACGAGGAGGAGGUUUAUCGAAUUUUGGGCUGAUGCCUUCAAA | 2.66e-05 ± 1.1e-05 s⁻¹ | – | – | – | 4.86e-05 ± 2.1e-05 s⁻¹ | – | – |
| AUAAAAGCGCCAGAACUACAGAAAUGUAGUUGACGAGGCGGAGGGUUAUCGAAUUUUCGGCGGAUGCCUCCAAA | 0.00234 ± 0.00083 s⁻¹ | 2340 ± 1100 µM | 6.34e-05 ± 1.1e-05 s⁻¹ | 0.000127 ± 1.4e-05 s⁻¹ | 0.000759 ± 0.0001 s⁻¹ | 0.00114 ± 0.00018 s⁻¹ | 0.00189 ± 0.00029 s⁻¹ |
| AUAAAAGCGCCAGAUCUACAGAAAUGUAGUUGACGAGGAGGAGGUUUAUCGAAUUUCCGGCGGAUGCCUCCAAA | 8.55e-05 ± 5e-06 s⁻¹ | 4690 ± 680 µM | – | < 1e-05 s⁻¹ | – | 2.97e-05 ± 8.8e-06 s⁻¹ | 5.82e-05 ± 8.1e-06 s⁻¹ |
| AUAAAAGCGCCAGAACUACAGAAAUGUAGUUGACGAGGAGGAGGUUUAUCGAAUUUUCGGUGGAUACCUCCAAA | < 1e-05 s⁻¹ | – | – | – | < 1e-05 s⁻¹ | – | – |
| AUAAAAGCGCCAGAACUACAGAAAUGUAGUUGACGAGGAGGAGGUUUAUCGAAAUUUCGGCGGAUGCAUCCAAA | 5.71e-05 ± 2e-05 s⁻¹ | – | – | 4.94e-05 ± 1.5e-05 s⁻¹ | 7.98e-05 ± 1.5e-05 s⁻¹ | 7.88e-05 ± 1.1e-05 s⁻¹ | – |
| AUAAAAGCGCCAGAACUACAGAAAUGUAGUUGACGAGGAGGAGGUUUAGCGAAUUUUCAGCGGAUGCCUCCAAA | < 1e-05 s⁻¹ | – | < 1e-05 s⁻¹ | < 1e-05 s⁻¹ | – | – | – |
| AUAAAAGCGCCAGAACUACAGAAAUGUAGUUGACGAGGAGGAGGUAUAUCGAAUUUUCGGCGGAUGCUUCCAAA | 0.00114 ± 0.00016 s⁻¹ | 2350 ± 540 µM | 3.61e-05 ± 1.2e-05 s⁻¹ | 6.77e-05 ± 1.1e-05 s⁻¹ | 0.000233 ± 3.5e-05 s⁻¹ | 0.000743 ± 0.00014 s⁻¹ | 0.0009 ± 8.7e-05 s⁻¹ |
| AUAAAAGCGCCAGAACUACAGAAAUGUAGUUUACGAGGAGGAGGUUUAUCGAAUUUCCGGCGGAUGCCUCCAAA | 4.06e-05 ± 2.6e-06 s⁻¹ | 2420 ± 550 µM | – | – | – | – | 3.26e-05 ± 8.4e-06 s⁻¹ |
| AUAAAAGCGCCAGAACUACAGAAAUGUAGUUGACGAGGAGGAGGUUUAUCGAAUUUUCUGCGGAUGCCUACAAA | 1.64e-05 ± 5.5e-06 s⁻¹ | – | – | – | – | – | – |
| AUAAAAGCGCCAGGACUACAGAAAUGUAGUUGACGAGGAGGAGGUUUAUCGAAUUUUCGGCGGAAGCCUCCAAA | 0.0124 ± 0.0022 s⁻¹ | 3350 ± 800 µM | 0.000169 ± 1.9e-05 s⁻¹ | 0.000424 ± 8.6e-05 s⁻¹ | 0.00213 ± 0.00035 s⁻¹ | 0.00492 ± 0.00087 s⁻¹ | 0.0094 ± 0.00098 s⁻¹ |
| AUAAAAGCGCCAGAACUACAGAAAUGUAGUUGACGAGGAGGAGGUUUAUCGAAUUAUUGGCGGAUGCCUCCAAA | 0.00027 ± 2.5e-05 s⁻¹ | 3350 ± 650 µM | – | – | 5.03e-05 ± 1.6e-05 s⁻¹ | 0.000108 ± 1.9e-05 s⁻¹ | 0.000208 ± 3.2e-05 s⁻¹ |
| AUAAAAGCGCCAGAGCUACAGAAAUGUAGUUGACGAGGAGGAGGUUUAUCGAAUUUUCGGCGGAUGCGUCCAAA | 0.000113 ± 3e-06 s⁻¹ | 367 ± 35 µM | – | 3.48e-05 ± 1.2e-05 s⁻¹ | 7.26e-05 ± 1.2e-05 s⁻¹ | 9.45e-05 ± 1.6e-05 s⁻¹ | 0.000113 ± 1.7e-05 s⁻¹ |
